Test results: US20230233512A1 (UNIVERSITY OF SOUTH CAROLINA, published 2023)
Substitutions are numbered along the chain they refer to. Names may count otherwise.

B1: PKR (protein)
chain: MAGDLSAGFFMEELNTYRQKQGVVLKYQELPNSGPPHDRRFTFQVIIDGREFPEGEGRSKKEAKNAAAKLAVEILNKEKKAVSPLLLTTTNSSEGLSMGNYIGLINRIAQKKRLTVNYEQCASGVHGPEGFHYKCKMGQKEYSIGTGSTKQEAKQLAAKLAYLQILSEETSVKSDYLSSGSFATTCESQSNSLVTSTLASESSSEGDFSADTSEINSNSDSLNSSSLLMNGLRNNQRKAKRSLAPRFDLPDMKETKYTVDKRFGMDFKEIELIGSGGFGQVFKAKHRIDGKTYVIKRVKYNNEKAEREVKALAKLDHVNIVHYNGCWDGFDYDPETSDDSLESSDYDPENSKNSSRSKTKCLFIQMEFCDKGTLEQWIEKRRGEKLDKVLALELFEQITKGVDYIHSKKLIHRDLKPSNIFLVDTKQVKIGDFGLVTSLKNDGKRTRSKGTLRYMSPEQISSQDYGKEVDLYALGLILAELLHVCDTAFETSKFFTDLRDGIISDIFDKKEKTLLQKLLSKKPEDRPNTSEILRTLTVWKKSPEKNERHTC
B2: wild type (wt) PACT (other, UniProt O75569 1-313, looked up)
chain: MSQSRHRAEAPPLEREDSGTFSLGKMITAKPGKTPIQVLHEYGMKTKNIPVYECERSDVQIHVPTFTFRVTVGDITCTGEGTSKKLAKHRAAEAAINILKANASICFAVPDPLMPDPSKQPKNQLNPIGSLQELAIHHGWRLPEYTLSQEGGPAHKREYTTICRLESFMETGKGASKKQAKRNAAEKFLAKFSNISPENHISLTNVVGHSLGCTWHSLRNSPGEKINLLKRSLLSIPNTDYIQLLSEIAKEQGFNITYLDIDELSANGQYQCLAELSTSPITVCHGSGISCGNAQSDAAHNALQYLKIIAERK
notes: also called Myc-PACT; flag-PACT
B3: PACT C213F (recessive DYT16 mutant) (other, UniProt O75569 1-313, looked up)
chain: B2 chain with C213F
notes: N-terminal Myc or FLAG tag in co-IP; GAL4-DBD or VP16-AD fusion in mammalian two-hybrid; histidine tag in PKR activity assay
B4: PACT C213R (recessive DYT16 mutant) (other, UniProt O75569 1-313, looked up)
chain: B2 chain with C213R
notes: as for B3
B5: PACT C77S (recessive DYT16 mutant) (other, UniProt O75569 1-313, looked up)
chain: B2 chain with C77S
notes: as for B3

Tests used:
[1] = target: T1, PACT C213F (recessive DYT16 mutant), O75569
T1 chain: B2 chain with C213F

[2] = target: T2, PACT C213R (recessive DYT16 mutant), O75569
T2 chain: B2 chain with C213R

[3] = target: T3, PACT C77S (recessive DYT16 mutant), O75569
T3 chain: B2 chain with C77S

[4] = target: T4, PACT N102S (dominant DYT16 mutant), O75569
T4 chain: B2 chain with N102S

[5] = target: T5, PACT P222L (recessive DYT16 mutant), O75569
T5 chain: B2 chain with P222L

[6] = target: T6, PACT T34S (dominant DYT16 mutant), O75569
T6 chain: B2 chain with T34S

[7] = target: T7, wild type (wt) PACT, O75569
T7 chain: B2 chain

[8] = target: T8, flag-tagged dominant negative PKR mutant, K296R (UniProt P19525 1-551); experiment: co-IP in HeLa cells: Myc-PACT on Myc-agarose, flag-PKR K296R detected by anti-flag blot
T8 construct: Used in the co-IP assays in HeLa cells; also called flag-PKR; flag-tagged K296R
Description: (§1) In all cases HeLa M cells were seeded at 20% confluency in 6-well dishes 24 hours prior to co-transfecting 250 ng of each flag- and/or Myc-tagged constructs using Effectene® reagent (Qiagen). Cells were harvested 24 hours post transfection and harvested in IP buffer. Whole cell extract was then immunoprecipitated overnight at 4° C. on a rotating wheel with either flag-agarose (Sigma) or Myc-agarose beads (Thermo Scientific). Immunoprecipitates were then washed 3-5 times in IP buffer followed by resuspension and boiling for 5 minutes in 1×Laemmle buffer. Samples were then resolved on 10% SDS-PAGE denaturing gels and transferred to PVDF membranes. […] The cell lysates were immunoprecipitated in 15 μL of Myc-agarose beads and resolved on 10% SDS-PAGE denaturing gels and transferred to PVDF membranes.
The immunoprecipitates were analyzed by western blot analysis with anti-flag (FIG. 4A) or anti-Myc (FIG. 4B) antibodies (co-IP panel) and with anti-Myc (FIG. 4A) or anti-flag (B) for IP panels.

[9] = target: B5; experiment: mammalian two-hybrid, luciferase reporter; PACT proteins as GAL4-DBD bait and VP16-AD prey
[10] = target: B3; experiment: co-IP in HeLa cells: flag-PACT on flag-agarose, Myc-PACT detected by anti-Myc blot
Description: as §1

**Q.** Which results are given for B1?
**A.** PKR autophosphorylation, in vitro PKR kinase activity assay [1]: In all cases, recessive mutations demonstrated a slightly increased capacity to activate PKR ... as compared to wt PACT; PKR autophosphorylation, in vitro PKR kinase activity assay [2]: In all cases, recessive mutations demonstrated a slightly increased capacity to activate PKR ... as compared to wt PACT; PKR autophosphorylation, in vitro PKR kinase activity assay [3]: In all cases, recessive mutations demonstrated a slightly increased capacity to activate PKR ... as compared to wt PACT; PKR autophosphorylation, in vitro PKR kinase activity assay [4]: The dominant mutants (lower panel) also showed enhanced ability to activate PKR at 400 µg; PKR autophosphorylation, in vitro PKR kinase activity assay [5]: In all cases, recessive mutations demonstrated a slightly increased capacity to activate PKR ... as compared to wt PACT; PKR autophosphorylation, in vitro PKR kinase activity assay [6]: The dominant mutants (lower panel) also showed enhanced ability to activate PKR at 400 µg; PKR autophosphorylation, in vitro PKR kinase activity assay [7]: When the purified recombinant PACT proteins were added, a dose dependent increase (left: 400 µg, right: 4.0 ng) in activated autophosphorylated PKR was observed

**Q.** Does B2 bind [8]?
**A.** binds

**Q.** What does the source list for B3?
**A.** binding result [8]: binds; fold higher interaction than wt PACT-wt PACT [9]: ~9 fold

**Q.** Does B4 bind [8]?
**A.** binds

**Q.** What does the source list for B5?
**A.** binding result [10]: binds; binding result [8]: binds
